In US8546537B2, “Streptavidin having low immunogenicity and use thereof” (The University of Tokyo, priority 2009, dated 2013):

How the values were obtained:
ROBO1 = ROBO1 (Homo sapiens, UniProt Q9Y6N7); assay: Isothermal Titration calorimetry (ITC) of B5209B mouse-scFv-mcSA414 and ROBO1; type: binding
Source text: By Isothermal Titration calorimetry (ITC), the interaction of B5209B mouse-scFv-mcSA414 and ROBO1 was subjected to […] analysis.

[1] = Differential Scanning calorimetry (DSC) thermal stability; type: physicochemical; details: PBS
Experimental: By Differential Scanning calorimetry (DSC), the thermal stability of B5209B mouse-scFv-mcSA414 was evaluated. PBS was used as a solvent. […] Accordingly, the temperature necessary for denaturation of the scFV domain of B5209B mouse-scFv-SA is assumed to be Tm 51.4° C., and the temperature necessary for the complete denaturation of a single molecule thereof is assumed to be Tm 108° C. Moreover, since the temperature for dissociation of a streptavidin domain tetramer was not detected, it is assumed that the streptavidin was completely denatured without the dissociation of a tetramer.

Chain of ROBO1 (Q9Y6N7 26-1651, species assumed): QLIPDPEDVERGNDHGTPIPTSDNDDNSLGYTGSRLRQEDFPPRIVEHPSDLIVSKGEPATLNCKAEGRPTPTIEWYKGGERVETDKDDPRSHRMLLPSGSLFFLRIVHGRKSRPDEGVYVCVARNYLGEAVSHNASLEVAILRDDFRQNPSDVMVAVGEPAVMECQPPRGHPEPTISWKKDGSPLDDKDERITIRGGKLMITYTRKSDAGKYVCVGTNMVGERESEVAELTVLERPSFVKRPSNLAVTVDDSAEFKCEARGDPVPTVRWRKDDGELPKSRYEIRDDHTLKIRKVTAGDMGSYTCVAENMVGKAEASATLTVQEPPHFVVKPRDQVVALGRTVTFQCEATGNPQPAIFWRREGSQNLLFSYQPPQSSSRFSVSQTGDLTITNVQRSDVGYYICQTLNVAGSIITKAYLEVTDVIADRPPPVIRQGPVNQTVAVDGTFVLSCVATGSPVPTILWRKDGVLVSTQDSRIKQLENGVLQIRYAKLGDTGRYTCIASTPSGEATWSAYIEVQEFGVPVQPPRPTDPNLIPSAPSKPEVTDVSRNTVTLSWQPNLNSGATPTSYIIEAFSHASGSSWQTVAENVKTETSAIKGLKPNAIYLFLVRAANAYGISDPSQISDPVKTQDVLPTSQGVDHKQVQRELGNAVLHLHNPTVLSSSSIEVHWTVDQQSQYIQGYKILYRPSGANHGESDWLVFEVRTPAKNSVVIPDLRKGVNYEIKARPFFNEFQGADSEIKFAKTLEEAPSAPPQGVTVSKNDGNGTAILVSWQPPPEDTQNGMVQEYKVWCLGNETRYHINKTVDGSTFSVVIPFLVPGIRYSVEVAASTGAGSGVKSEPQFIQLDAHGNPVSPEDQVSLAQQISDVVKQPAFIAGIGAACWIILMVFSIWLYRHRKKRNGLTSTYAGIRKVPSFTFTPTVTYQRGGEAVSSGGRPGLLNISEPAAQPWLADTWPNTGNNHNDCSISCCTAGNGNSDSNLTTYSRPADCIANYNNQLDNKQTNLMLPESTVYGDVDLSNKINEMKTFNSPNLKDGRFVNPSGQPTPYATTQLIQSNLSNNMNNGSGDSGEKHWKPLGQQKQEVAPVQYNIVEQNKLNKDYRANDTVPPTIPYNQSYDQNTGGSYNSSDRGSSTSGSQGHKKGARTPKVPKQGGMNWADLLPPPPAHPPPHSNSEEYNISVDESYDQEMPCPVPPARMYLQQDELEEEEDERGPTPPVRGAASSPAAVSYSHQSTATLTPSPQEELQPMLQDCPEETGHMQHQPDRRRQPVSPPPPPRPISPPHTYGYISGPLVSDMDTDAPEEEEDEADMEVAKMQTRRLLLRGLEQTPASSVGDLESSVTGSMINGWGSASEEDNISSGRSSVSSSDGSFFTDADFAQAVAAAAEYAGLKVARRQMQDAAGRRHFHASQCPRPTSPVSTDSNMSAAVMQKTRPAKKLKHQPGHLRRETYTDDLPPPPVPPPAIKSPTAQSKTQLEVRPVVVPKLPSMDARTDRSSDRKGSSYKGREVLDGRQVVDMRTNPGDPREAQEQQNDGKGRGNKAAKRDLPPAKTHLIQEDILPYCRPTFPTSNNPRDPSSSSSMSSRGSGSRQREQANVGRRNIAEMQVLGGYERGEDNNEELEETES

B1: B5209B mouse-scFv-mcSA414: fusion of anti-ROBO1 monoclonal antibody B5209B mouse scFv and mcSA414, SEQ ID NO: 16 (protein, listed as Mus sp.)
chain: MAEVQLVESGGGVVQPGGSLKLSCAASGFTFSTYDMSWVRQTPDKRLELVATINSNGGSTYYPDSVKGRFTSSRDNAKNILYLQMSSLKSEDTAMYYCAREALLRPPYYALDYWGQGTSVTVSSAGGGGSGGGGSGGGGSDILDIQMTQSPASLSASVGETVTITCGASENIYGALTWYQRKQGKSPQLLIYGAINLADDKSSRFSGSGSGRQYSLKISSLHPDDVATYYCQNVLSTPFTFGSGTKLEIKAAGSSGSGSAAEAGITGTWSNQLGSTFIVTAGADGALTGTYESAVGNAESRYVLTGRYDSAPATDGSGTALGWTVAWKNNSKNAHSATTWSGQYVGGADAKINTQWLLTSGTTQANAWKSTLVGHDTFTKVKPSAASGARHHHHHH
- binding ratio: molecules of ROBO1 bound to a tetramer (ROBO1): 2
- change in ΔH compared with scFV (ROBO1): no significant change
- reduction in affinity compared with scFV (ROBO1): approximately one order of magnitude
- ΔS value compared with scFV (ROBO1): approximately 1/40
- amount of enthalpy change (ΔH) (ROBO1; 25° C., PBS): -3.85 kcal/mol
- amount of entropy change (ΔS) (ROBO1; 25° C., PBS): −22 J/mol·K
- temperature for dissociation of a streptavidin domain tetramer [1]: not detected
- temperature necessary for denaturation of the scFV domain (Tm) [1]: 51.4 °C
- temperature necessary for the complete denaturation of a single molecule (Tm) [1]: 108 °C
